The results in this text go back to article PMC3776778, “A Fully Human Inhibitory Monoclonal Antibody to the Wnt Receptor RYK” (PLoS ONE, 2013).

The assay concerns the target T1, recombinant mouse Wnt3a protein (mouse, UniProt P27467 19-352).
T1 construct: recombinant mouse Wnt3a (R&D Systems); the bought protein is probably the mature secreted form (surmise); also called recombinant Wnt3a protein; source: bought: R&D Systems
Briefly: ELISA; competitive ELISA, third round of a screen of a human scFv phage display library: phage clones against recombinant mouse Wnt3a for binding to purified hRYKWD.Fc. Particulars: both partners purified. On the technique in general: An ELISA detects its analyte on a solid surface through an enzyme-linked reagent.

T1 sequence (P27467 19-352): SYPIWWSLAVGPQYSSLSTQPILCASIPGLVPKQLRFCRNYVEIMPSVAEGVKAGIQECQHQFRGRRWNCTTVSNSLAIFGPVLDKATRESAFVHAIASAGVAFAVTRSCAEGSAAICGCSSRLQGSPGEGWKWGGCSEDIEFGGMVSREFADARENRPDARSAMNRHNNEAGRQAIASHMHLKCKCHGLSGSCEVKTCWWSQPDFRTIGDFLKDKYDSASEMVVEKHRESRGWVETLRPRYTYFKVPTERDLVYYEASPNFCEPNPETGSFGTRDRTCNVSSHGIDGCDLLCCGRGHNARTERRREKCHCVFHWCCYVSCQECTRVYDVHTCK

B1: hRYKWD.Fc (WIF domain of human RYK fused to the Fc.FLAG region of human IgG1) (Fc fusion, UniProt P34925 66-194, looked up)
chain: LYLSEDEVRRLIGLDAELYYVRNDLISHYALSFSLLVPSETNFLHFTWHAKSKVEYKLGFQVDNVLAMDMPQVNISVQGEVPRTLSVFRVELSCTGKVDSEVMILMQLNLTVNSSKNFTVLNFKRRKMC
notes: WIF domain of human RYK, lacking the metalloprotease cleavage site; also called hRYKWD.Fc.FLAG; human RYK WIF domain-only fusion protein
As to B1, the binding result was “binds”.
